No end group written: not given here.
Molecular target: T1, NMT1 (115–496), NMT catalytic domain (human, UniProt P30419 115-496)
T1 construct: human N-myristoyltransferase 1, catalytic domain, residues 115-496; Crystallised with myristoyl-CoA; also called N-myristoyltransferase 1; source: E. coli BL21, purified (Ni-NTA, PreScission cleavage, Superdex 75)
T1 sequence (looked up): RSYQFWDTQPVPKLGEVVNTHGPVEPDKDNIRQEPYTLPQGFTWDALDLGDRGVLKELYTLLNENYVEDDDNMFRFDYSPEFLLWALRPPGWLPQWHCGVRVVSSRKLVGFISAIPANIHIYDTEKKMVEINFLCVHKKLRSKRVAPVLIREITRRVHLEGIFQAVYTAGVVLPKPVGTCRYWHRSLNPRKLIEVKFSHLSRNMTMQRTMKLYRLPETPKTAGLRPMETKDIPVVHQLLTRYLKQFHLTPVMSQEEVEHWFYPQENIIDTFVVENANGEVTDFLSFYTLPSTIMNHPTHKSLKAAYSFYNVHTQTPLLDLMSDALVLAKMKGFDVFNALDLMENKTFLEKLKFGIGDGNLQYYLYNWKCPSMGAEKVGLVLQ
Experiment: crystal structure; NMT1 7.5 mg/ml in 25 mM Tris-HCl pH 7.5, 120 mM NaCl, with 0.3 mM myristoyl-CoA and 0.3 mM AcKVLSKIF; well 18% PEG 8000, 100 mM NaCl, 100 mM sodium citrate pH 5.6, 100 mM MgCl2
Settings: both partners purified

- binding result: binds
B1: Ac-KVLSKIF peptide (peptide)
peptide: Ac-KVLSKIF
modifications: also: myristoyl on Lys3 side chain (residue 3 is L), formed in crystal
notes: derived from the N-terminus of ARF6, G2 deleted; also called acetyl-KVLSKIF; myristoyl-AcKVLSKIF; source: synthetic peptide (synthesized in-house)
